Results: paper PMC3297582, “Spo0A∼P Imposes a Temporal Gate for the Bimodal Expression of Competence in Bacillus subtilis” (PLoS Genetics, 2012)

Molecular target: the molecule itself
Assay: SEC; Superdex 200 column; Spo0A after phosphorylation with phosphoramidate; buffer not stated

B1: Spo0A∼P (phosphorylated form of the response-regulator protein Spo0A) (natural protein, Bacillus subtilis, UniProt P06534 1-267, looked up)
chain: MEKIKVCVADDNRELVSLLSEYIEGQEDMEVIGVAYNGQECLSLFKEKDPDVLVLDIIMPHLDGLAVLERLRESDLKKQPNVIMLTAFGQEDVTKKAVDLGASYFILKPFDMENLVGHIRQVSGNASSVTHRAPSSQSSIIRSSQPEPKKKNLDASITSIIHEIGVPAHIKGYLYLREAISMVYNDIELLGSITKVLYPDIAKKFNTTASRVERAIRHAIEVAWSRGNIDSISSLFGYTVSMTKAKPTNSEFIAMVADKLRLEHKAS
modifications: phosphorylated with phosphoramidate (residue not given; fraction phosphorylated uncertain)
notes: Spo0A, response regulator of Bacillus subtilis, full length, phosphorylated in vitro; also called OA∼P; source: purified following a published protocol [41] as modified [42]; phosphorylated with non-radioactive phosphoramidate
stoichiometry N: 2
